Ends that are not written are not given here.
Legend:
[1] = biological target: T1, CRF2R; test: cell-based or functional assay
T1 sequence (Q13324 whole entry, species assumed, looked up): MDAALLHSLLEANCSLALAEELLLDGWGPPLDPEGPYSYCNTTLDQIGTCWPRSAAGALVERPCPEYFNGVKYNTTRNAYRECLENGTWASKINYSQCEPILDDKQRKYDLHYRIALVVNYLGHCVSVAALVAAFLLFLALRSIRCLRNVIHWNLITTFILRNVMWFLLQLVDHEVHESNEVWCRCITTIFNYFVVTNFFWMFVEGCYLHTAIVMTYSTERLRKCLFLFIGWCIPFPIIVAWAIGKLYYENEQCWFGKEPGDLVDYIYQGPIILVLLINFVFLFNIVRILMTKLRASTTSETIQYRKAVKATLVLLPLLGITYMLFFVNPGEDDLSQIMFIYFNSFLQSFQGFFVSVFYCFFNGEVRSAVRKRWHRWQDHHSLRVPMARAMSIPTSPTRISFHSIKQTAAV

[2] = biological target: CRF1R; test: cell-based or functional assay

Binder	CRF2R EC50 [1]	CRF2R Emax [1]	CRF1R EC50 [2]	CRF1R Emax [2]
Ac-IVLSLDVPIGLLQILLEQEKARAAREQATTNARILARV-NH2 (not fully specified) [SEQ ID NO 107]	12.1 nM	–	–	–
SQEPPISLDLPLELLREVLEMTKADQLAQQAHSNRKLLDIA-NH2 [SEQ ID NO 89]	100 nM	12.7%	–	–
Ac-IVLSLDVPIGLLQILLEQEKARAAREQATTNARILARV-NH2 [SEQ ID NO 3]	12.1 nM	–	–	–
ZGPPISIDLSIGLLRKMIEIEKQEKEKQQAANNRLLLDTI (C-terminal amide) [SEQ ID NO 25]	81 nM	81.9%	677 nM	92.3%
ZGPPISIDLPIKLLRKMIEIEKQEKEKQQAANNRLLLDTI (C-terminal amide) [SEQ ID NO 34]	> 100 nM	45%	> 1000 nM	11%
ZGPPISIDLPIILLRKMIEIEKQEKEKQQAANNRLLLDTI (C-terminal amide) [SEQ ID NO 36]	14.8 nM	73%	> 1000 nM	33%
ZGPPISIDLPILLLRKMIEIEKQEKEKQQAANNRLLLDTI (C-terminal amide) [SEQ ID NO 35]	15.6 nM	88%	> 1000 nM	74%
ZGPPISIDLPQYLLRKMIEIEKQEKEKQQAANNRLLLDTI (C-terminal amide) [SEQ ID NO 27]	10.7 nM	96%	325 nM	100%
ZGPPISIDLPTTLLRKMIEIEKQEKEKQQAANNRLLLDTI (C-terminal amide) [SEQ ID NO 42]	> 100 nM	88%	> 1000 nM	10%
ZGPPISIDLPTILLRKMIEIEKQEKEKQQAANNRLLLDTI (C-terminal amide) [SEQ ID NO 50]	19 nM	94%	> 1000 nM	42%
ZGPPISIDLPIVLLRKMIEIEKQEKEKQQAANNRLLLDTI (C-terminal amide) [SEQ ID NO 31]	30.8 nM	100%	> 1000 nM	18%
ZGPPISIDLPYYLLRKMIEIEKQEKEKQQAANNRLLLDTI (C-terminal amide) [SEQ ID NO 40]	6.95 nM	93%	102 nM	99%
ZGPPISIDLPTSLLRKMIEIEKQEKEKQQAANNRLLLDTI (C-terminal amide) [SEQ ID NO 43]	> 100 nM	67%	> 1000 nM	10%
ZGPPISIDLPTDLLRKMIEIEKQEKEKQQAANNRLLLDTI (C-terminal amide) [SEQ ID NO 49]	> 100 nM	37%	> 1000 nM	15%
ZGPPISIDLPTVLLRKMIEIEKQEKEKQQAANNRLLLDTI (C-terminal amide) [SEQ ID NO 46]	> 100 nM	100%	> 1000 nM	17%
ZGPPISIDLPTFLLRKMIEIEKQEKEKQQAANNRLLLDTI (C-terminal amide) [SEQ ID NO 44]	19.1 nM	87%	944 nM	64%

Binder	CRF2R EC50 [1]	CRF2R Emax [1]	CRF1R EC50 [2]	CRF1R Emax [2]
ZGPPISIDLPQVLLRKMIEIEKQEKEKQQAANNRLLLDTI (C-terminal amide) [SEQ ID NO 197]	48.1 nM	94%	–	–
ZGPPISIDLPQQLLRKMIEIEKQEKEKQQAANNRLLLDTI (C-terminal amide) [SEQ ID NO 198]	29.9 nM	100%	–	–
ZGPPISIDLPIDLLRKMIEIEKQEKEKQQAANNRLLLDTI (C-terminal amide) [SEQ ID NO 28]	100 nM	15%	> 1000 nM	2%
ZGPPISIDLSLELLRKMIEIEKQEKEKQQAANNALLLATI (C-terminal amide) [SEQ ID NO 30]	18.7 nM	85.5%	100 nM	100%
ZGPPISIDLPAYLLRKMIEIEKQEKEKQQAANNRLLLDTI (C-terminal amide) [SEQ ID NO 32]	20.2 nM	98%	606 nM	94%
ZGPPISIDLPVYLLRKMIEIEKQEKEKQQAANNRLLLDTI (C-terminal amide) [SEQ ID NO 39]	58.2 nM	94%	1000 nM	63%
ZGPPISIDLPIFLLRKMIEIEKQEKEKQQAANNRLLLDTI (C-terminal amide) [SEQ ID NO 29]	16 nM	100%	> 1000 nM	79%
ZGPPISIDLPIRLLRKMIEIEKQEKEKQQAANNRLLLDTI (C-terminal amide) [SEQ ID NO 38]	71.9 nM	91%	> 1000 nM	11%
ZGPPISIDLPTWLLRKMIEIEKQEKEKQQAANNRLLLDTI (C-terminal amide) [SEQ ID NO 41]	18.3 nM	100%	> 1000 nM	43%
ZGPPISIDLPINLLRKMIEIEKQEKEKQQAANNRLLLDTI (C-terminal amide) [SEQ ID NO 37]	> 100 nM	51%	> 1000 nM	5%
ZGPPISIDLPIALLRKMIEIEKQEKEKQQAANNRLLLDTI (C-terminal amide) [SEQ ID NO 47]	> 100 nM	66%	1000 nM	12%
ZGPPISIDLPEYLLRKMIEIEKQEKEKQQAANNRLLLDTI (C-terminal amide) [SEQ ID NO 48]	100 nM	14%	1000 nM	21%
ZGPPISIDLPTKLLRKMIEIEKQEKEKQQAANNRLLLDTI (C-terminal amide) [SEQ ID NO 45]	> 100 nM	44%	> 1000 nM	7%
ZGPPISIDLPIPLLRKMIEIEKQEKEKQQAANNRLLLDTI (C-terminal amide) [SEQ ID NO 26]	91.8 nM	86%	> 1000 nM	16%
IVLSLDVPIGLLQILLEQEKARAAREQATTNARILARV-NH2 [SEQ ID NO 121]	5.67 nM	–	–	–
